From the supplement of paper PMC12764529
± gives the half width of the 95% confidence interval.

How the values were obtained:
[1] = folding stability dG unfold (combined trypsin and chymotrypsin); higher = more stable
How it was run: (§1)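 Sequencing followed digestion of designed mini-proteins with trypsin and chymotrypsin, each at 11 concentrations in threefold dilutions together with a no-protease condition. The mini-proteins were under 80 residues, had no cysteine, sat in a PA-tagged cDNA display construct, and were kept only if AlphaFold2 dimer inter-PAE was above 15. From the counts, Bayesian fitting gave K50, and unfolding free energy was derived against a sequence-predicted unfolded-state K50 and a shared folded-state K50, per protease or combined.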

[2] = folding stability dG unfold from chymotrypsin proteolysis; higher = more stable
How it was run: as §1

[3] = folding stability dG unfold from trypsin proteolysis; higher = more stable
How it was run: as §1

Sequence	folding stability dG unfold [1]	folding stability dG unfold [2]	folding stability dG unfold [3]
SAGGSAGGSAGGMTVRITTPDGRVIEIPAKDLSPEQLAALKEAGFEVVSVEPGRVTIRLKSAGGSAGGSAGG [r7_496_TrROS_Hall]	1.49 ± 0.13 kcal/mol	1.92 ± 0.036 kcal/mol	0.865 ± 0.1 kcal/mol
SAGGSAGGSAGGMTVTLKAPDGKWLTVPVDPEDPKAVKEAVEELAAKGHPVVEVSTDEKSAGGSAGGSAGGS [r10_231_JUSTAS]	0.355 ± 0.059 kcal/mol	0.0542 ± 0.097 kcal/mol	0.555 ± 0.025 kcal/mol
SAGGSAGGSAGGMTVTTEKAAPSPRQVTVTTVYDPSTGTSVTIVTLPDGSLKVIPSGTLSAGGSAGGSAGGS [r10_996_JUSTAS]	-0.247 ± 0.23 kcal/mol	-0.404 ± 0.22 kcal/mol	0.193 ± 0.14 kcal/mol
SAGGSAGGSAGGMVIVTFPDGSVREVEVLETEPDGTVVVAPPDRPVETLSGAGLTLTPVPSAGGSAGGSAGG [r7_823_JUSTAS]	0.59 ± 0.07 kcal/mol	-0.524 ± 0.13 kcal/mol	1.19 ± 0.071 kcal/mol
SAGGSAGGSAGGMVKITFEKDPNSDKGRVTLTDPNATVTLEYDSEEEAEKAIKERFPELESAGGSAGGSAGG [r7_841_JUSTAS]	0.435 ± 0.088 kcal/mol	0.879 ± 0.02 kcal/mol	-0.364 ± 0.14 kcal/mol
SAGGSAGGSAGGMVLVETEPLPDGGYRVLVVFPGTDEVRELYFSSSTTPEQVLDVVLAESAGGSAGGSAGGS [r10_825_TrMRF]	2.34 ± 0.083 kcal/mol	2.233 ± 0.021 kcal/mol	2.44 ± 0.059 kcal/mol
SAGGSAGGSAGGMVVLENGDEVIVETFEFEEPVLDDVSEELREELGVVKVTVTKVTVIRRSAGGSAGGSAGG [r7_324_JUSTAS]	1.11 ± 0.13 kcal/mol	1.15 ± 0.059 kcal/mol	1.08 ± 0.069 kcal/mol
SAGGSAGGSAGGMYKVTITVGGKEITIEVSEEELEELLKALEDEGYEIKEIRVEKLPEESAGGSAGGSAGGS [r10_405_TrROS_Hall]	3.63 ± 0.11 kcal/mol	3.57 ± 0.097 kcal/mol	3.91 ± 0.23 kcal/mol
SAGGSAGGSAGGMYVLIKITNPKTKKEISILIKVKPGDKITFTLPNGAKVEIIELPPEESAGGSAGGSAGGS [r10_957_TrROS_Hall]	3.92 ± 0.22 kcal/mol	4.28 ± 0.068 kcal/mol	3.3 ± 0.13 kcal/mol
SAGGSAGGSAGGNIEIFYFPDGYVVITIWDPDEGWRIVITAKIDPGDGKIKEMDIMPVPSAGGSAGGSAGGS [r10_613_TrROS]	2.85 ± 0.19 kcal/mol	2.91 ± 0.13 kcal/mol	2.67 ± 0.18 kcal/mol
SAGGSAGGSAGGNKVTIPIHIPPGDPGNPEKAIEWAEHIAKELQEKNGGKDVDINIMPSPSAGGSAGGSAGG [r7_440_TrROS]	0.174 ± 0.33 kcal/mol	-0.595 ± 0.079 kcal/mol	0.772 ± 0.1 kcal/mol
SAGGSAGGSAGGNPLKGNFFRLKLELTLKVEVKIPKKGEKKTFPIKIELELDVPPDSILSAGGSAGGSAGGS [r10_133_TrMRF]	3.69 ± 0.11 kcal/mol	3.98 ± 0.12 kcal/mol	3.39 ± 0.26 kcal/mol
SAGGSAGGSAGGNVIRVEKEPNTVVLYFPDGTYRVVEVEKKDESVKVLSEKVEPIVPGLLSAGGSAGGSAGG [r7_443_JUSTAS]	0.702 ± 0.059 kcal/mol	-0.177 ± 0.2 kcal/mol	1.12 ± 0.024 kcal/mol
SAGGSAGGSAGGNWYIIIYFPPGRKRIIPFDSPEEMREEMKENGMPIKIMPKEDAEKLLSAGGSAGGSAGGS [r10_66_TrROS]	1.14 ± 0.084 kcal/mol	1.25 ± 0.052 kcal/mol	0.848 ± 0.078 kcal/mol
SAGGSAGGSAGGPAAGEKVVAVGVNPNGETSVREFTVHPDDPLGEVYTEDGTRWYFYPGTSAGGSAGGSAGG [r7_132_TrMRF]	0.342 ± 0.15 kcal/mol	0.338 ± 0.23 kcal/mol	0.303 ± 0.091 kcal/mol
SAGGSAGGSAGGPAPKIDIEIIGVFKTGNRPILIIRFPDGAVIVIDLDSGEIGVIPPDQISAGGSAGGSAGG [r7_28_TrROS]	2.66 ± 0.17 kcal/mol	2.24 ± 0.11 kcal/mol	2.9 ± 0.19 kcal/mol
SAGGSAGGSAGGPAVPVRTTLPDGRVVYYDPESGLTTIYVPETNETLVRDPATGTVTALSAGGSAGGSAGGS [r10_1057_JUSTAS]	0.938 ± 0.036 kcal/mol	0.562 ± 0.04 kcal/mol	1.26 ± 0.027 kcal/mol
SAGGSAGGSAGGPDPEAYPFRYPDREFVLVRNPDEPDTYTILYPDDKVETVPAEDILPESAGGSAGGSAGGS [r10_556_TrMRF]	0.3 ± 0.06 kcal/mol	-0.0442 ± 0.098 kcal/mol	0.473 ± 0.027 kcal/mol
SAGGSAGGSAGGPEAVIEELKKAGYTPKVDPNSSVVTVTYKNPDGTILTKTINVPPSLLSAGGSAGGSAGGS [r10_1173_JUSTAS]	1.16 ± 0.26 kcal/mol	1.59 ± 0.2 kcal/mol	-0.269 ± 0.25 kcal/mol
SAGGSAGGSAGGPEIITFRNPGNGVTLMVWRTPNNITVSIYNPDGPQKEIPIPPGEPIFSAGGSAGGSAGGS [r10_976_TrROS]	0.875 ± 0.19 kcal/mol	0.971 ± 0.36 kcal/mol	0.833 ± 0.098 kcal/mol
SAGGSAGGSAGGPEIVSAEVLAVFDDGKLVKVKLRVPTPGKGYRYLEAVFLVKPGEKLLSAGGSAGGSAGGS [r10_1183_TrMRF]	2.1 ± 0.033 kcal/mol	2.12 ± 0.033 kcal/mol	2.05 ± 0.052 kcal/mol
